This note sets out measurements from paper PMC8449268, “Activity of the yeast vacuolar TRP channel TRPY1 is inhibited by Ca^2+–calmodulin binding” (The Journal of Biological Chemistry, 2021).

Settings in all cases: both partners purified
In assay [1] the target is T1, GST-Cmd1 (yeast calmodulin fused to glutathione-S-transferase) (S. cerevisiae (yeast), UniProt P06787 1-147).
T1 construct: Yeast calmodulin Cmd1, wild type; In the peptide scan the same fusion protein was used ^14C-labelled (^14C-GST-Cmd1); also called GST-fused Cmd1; yeast CaM; source: E. coli, purified (glutathione sepharose)
The experiment in a line: peptide or protein array; 20-mer TRPY1 peptides shifted by five residues on cellulose membrane (16 nmoles per spot); ^14C-GST-Cmd1 (60 cpm per spot) in 50 mM Tris pH 7.5, 150 mM NaCl, 0.1% Triton X-100, 2 mM CaCl2, 4 °C, 16 h; autoradiography.

Assay [2] deals with T1, GST-Cmd1 (yeast calmodulin fused to …). The experiment in a line: pull-down; MBP-fused TRPY1 fragments (12 ug) immobilised on amylose resin, incubated with 12 ug GST-Cmd1 or GST-Cmd1–6 with 2 mM Ca2+, 60 min, 4 °C; bound protein detected by anti-GST blot.
The next assay has as its target T2, 6His-Cmd1 (S. cerevisiae (yeast), UniProt P06787 1-147).
T2 construct: Yeast calmodulin Cmd1, wild type; also called yeast CaM; source: E. coli, purified (Ni–NTA agarose)
The experiment in a line: pull-down; GST, GST-Cmd1 or GST-TRPY1-C (12 ug) immobilised on glutathione sepharose; 6His-Sumo-TRPY1-N or 12 ug 6His-Cmd1 added, 2 mM CaCl2, 60 min, 4 °C; SDS-PAGE and Coomassie blue staining.

T1 sequence (P06787 whole entry, the tested form may be a part): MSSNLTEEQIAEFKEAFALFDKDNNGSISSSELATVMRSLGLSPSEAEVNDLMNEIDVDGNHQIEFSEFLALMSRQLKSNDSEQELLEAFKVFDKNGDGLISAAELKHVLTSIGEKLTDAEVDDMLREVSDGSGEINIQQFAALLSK
T2 sequence (P06787 whole entry): as the sequence (P06787 whole entry, the tested form may be a part) above

B1: TRPY1 C-terminal peptide of the peptide scan, residues 527–546 (peptide, UniProt Q12324 527-546, looked up)
peptide: VYSPFLLLISVKETREARRI
notes: source: synthetic peptide, spot-synthesised on cellulose membrane
Turning to B1, the binding result in assay [1] was “binds”.

B2: MBP-TRPY1-C (cytosolic C terminus of TRPY1 fused to maltose-binding protein) (domain or fragment, S. cerevisiae, UniProt Q12324 538-675, looked up)
chain: KETREARRIKYNRMKRLNDDANEYDTPWDLTDGYLDDDDGLFSDNRNSGMRATQLKNSRSLKLQRTAEQEDVHFKVPKKWYKNVKKCSPSFEQYDNDDTEDDAGEDKDEVKELTKKVENLTAVITDLLEKLDIKDKKE
notes: TRPY1 (Yvc1, gene YVC1), Saccharomyces cerevisiae; cytosolic C terminus, printed as 137 amino acids, residues 538-675 (K538 to E675); The limits 538-675 are printed for GST-TRPY1-C and for 'the complete recombinant TRPY1 C terminus'; also called MBP-fused TRPY1-C; Yvc1 C terminus; source: E. coli, purified (amylose resin)
As to B2, the binding result in assay [2] is “binds”.

B3: GST-TRPY1-C (538–675) (domain or fragment, S. cerevisiae, UniProt Q12324 538-675, looked up)
chain: B2 chain
notes: TRPY1 (Yvc1), Saccharomyces cerevisiae; cytosolic C terminus, printed as 137 amino acids, residues 538-675 (K538 to E675); also called GST-tagged TRPY1-C; source: E. coli, purified (glutathione sepharose)
On to B3, for which the binding result in the assay with 6His-Cmd1 was “binds”.
